In US20240124597A1 (Bristol-Myers Squibb, published 2024):

B1: ADX_Y1258.ZZ0-1 (antibody, V domains shown)
VH: QVQLQQSGAELAKPGSSVKMSCKASGYAFTSYWMHWIKQRPGQGLEWIGFINPTTGYSEYNQKFKDKATLTADKSSSTAYMQLNSLTSEDSAVYFCARWGLPPFAYWGQGTLVTVSA
VL: DIVMTQSHKFMSTSVGDRVSITCKASQDVSTAVAWYQQKPGQSPKLLIYSASYRYTGVPDRFTGSGSGTDFTFTISSVQAEDLAVYYCQQHYSTPWTFGGGTKLEIK
notes: Mouse anti-human-CD40 antibody
B2: ADX_Y1264.ZZ0-1 (antibody, V domains shown)
VH: EVQLQQSGTVLARPGASVKMSCRASGYSFSSYWMHWVKQRPGQGLEWIGSINPGNSDAFYNQQFKGKAKLTAVTSASTAYMELSSLTNEDSAVYYCTRWGLPPFAYWGQGTLVTVSA
VL: DIVMTQSHKFMSTSVGDRVSITCKASQDVSTAVAWYQQKPGQSPKLLIYSASYRYTGVPDRFTGSGSGTDFTFTISSVQAEDLAVYYCHQHYSTPWTFGGGTKLEIK
notes: as for B1
B3: ADX_Y1267.ZZ0-1 (antibody, V domains shown)
VH: QVQLQQPGAELVKPGASVRLSCEASGYSFTSYWMHWVKQRPGQGLEWIGQINPSNGRTQYNEKFKSMATLTVDKSSSTAYIQLNSLTSEDSAVYYCARWGLQPFAYWGQGTLVTVSA
VL: DIVMTQSHKFMSTSVGDRVSITCKASQDVSTAVAWYQQKPGQSPKLLIYSASYRYTGVPDRFTGSGSGTDFTFTISSVQAEDLAVYYCLQHYTTPWTFGGGTKLEIK
notes: as for B1
B4: ADX_Y1260.ZZ0-1 (antibody, V domains shown)
VH: QVQLQQSGAELTKPGASVKMSCKASGYSFTSYWMHWVKQRPGQGLEWIGSINPSTGYTEDNQKFKDKATLTADKSSTTAYMQLSSLTSEDSAVYYCARWGLPPFAYWGQGTLVTVSA
VL: DIVMTQSHKFMSTSVGDRVSITCKASQDVSTAVAWYQQKPGQSPKLLIYSASYRYTGVPDRFTGSGSGTDFTFTISSVQAEDLAVYYCQQHYSTPWTFGGGTKLEIK
notes: as for B1
B5: ADX_Y1262.ZZ0-1 (antibody, V domains shown)
VH: QVQLQQSGAELAKPGSSVKMSCKASGYAFTSYWMHWVKQRPGQGLEWIGYINPTTGYSAYNQKFKDKATLTADKSSSTAYMQLNSLTSEDSAVYYCARWDPRPFAYWGQGTLVTVSA
VL: DIVMTQSHKFMSTSVGDRVSITCKASQDVSTAVAWYQQKPGQSPKLLIYSASYRYTGVPDRFTGSGYGTDFTFTISSVQAEDLAVYYCQQHYSTPWTFGGGTKLEIK
notes: as for B1
B6: Y12XX-hz37 (antibody, human IgG1, kappa, V domains shown)
VH: QVQLVQSGAEVKKPGSSVKVSCKASGYAFTSYWMHWVRQAPGQGLEWMGQINPSNGRSQYNEKFKTRVTITADKSTSTAYMELSSLRSEDTAVYYCARWGLQPFAYWGQGTLVTVSS
VL: EIVMTQSPATLSVSPGERATLSCKASQDVSTAVAWYQQKPGQAPRLLIYSASYRYTGIPARFSGSGSGTEFTLTISSLQSEDFAVYYCQQHYSTPWTFGGGTKVEIKR
notes: Humanized, IgG1-P238K; supernatant sample
B7: Y12XX-hz34 (antibody, human IgG1, kappa, V domains shown)
VH: QVQLVQSGAEVKKPGSSVKVSCKASGYAFTSYWMHWVRQRPGQGLEWIGYINPTTGYSAYNQKFKDKATLTADKSTSTAYMELNSLRSEDTAVYYCARWDPRPFAYWGQGTLVTVSS
VL: EIVMTQSPATLSVSPGERATLSCKASQDVSTAVAWYQQKPGQAPRLLIYSASYRYTGIPARFSGSGSGTEFTLTISSLQSEDFAVYYCQQHYSTPWTFGGGTKVEIKR
notes: as for B6
B8: Y12XX-hz39 (antibody, human IgG1, kappa, V domains shown)
VH: QVQLVQSGAEVKKPGSSVKVSCKASGYAFTSYWMHWVRQRPGQGLEWIGQINPSNGRSQYNEKFKTRVTITADKSTSTAYMELSSLRSEDTAVYYCARWGLQPFAYWGQGTLVTVSS
VL: EIVMTQSPATLSVSPGERATLSCKASQDVSTAVAWYQQKPGQAPRLLIYSASYRYTGIPARFSGSGSGTEFTLTISSLQSEDFAVYYCQQHYSTPWTFGGGTKVEIKR
notes: as for B6
B9: Y12XX-hz38 (antibody, human IgG1, kappa, V domains shown)
VH: QVQLVQSGAEVKKPGSSVKVSCKASGYAFTSYWMHWVRQRPGQGLEWMGQINPSNGRSQYNEKFKTRVTITADKSTSTAYMELSSLRSEDTAVYYCARWGLQPFAYWGQGTLVTVSS
VL: EIVMTQSPATLSVSPGERATLSCKASQDVSTAVAWYQQKPGQAPRLLIYSASYRYTGIPARFSGSGSGTEFTLTISSLQSEDFAVYYCQQHYSTPWTFGGGTKVEIKR
notes: as for B6
B10: Y12XX-hz41 (antibody, human IgG1, kappa, V domains shown)
VH: QVQLVQSGAEVKKPGSSVKVSCKASGYAFTSYWMHWVRQAPGQGLEWMGQINPSNARSQYNEKFKTRVTITADKSTSTAYMELSSLRSEDTAVYYCARWGLQPFAYWGQGTLVTVSS
VL: EIVMTQSPATLSVSPGERATLSCKASQDVSTAVAWYQQKPGQAPRLLIYSASYRYTGIPARFSGSGSGTEFTLTISSLQSEDFAVYYCQQHYSTPWTFGGGTKVEIKR
notes: as for B6
B11: Y1258 (antibody, human IgG1, kappa)
heavy: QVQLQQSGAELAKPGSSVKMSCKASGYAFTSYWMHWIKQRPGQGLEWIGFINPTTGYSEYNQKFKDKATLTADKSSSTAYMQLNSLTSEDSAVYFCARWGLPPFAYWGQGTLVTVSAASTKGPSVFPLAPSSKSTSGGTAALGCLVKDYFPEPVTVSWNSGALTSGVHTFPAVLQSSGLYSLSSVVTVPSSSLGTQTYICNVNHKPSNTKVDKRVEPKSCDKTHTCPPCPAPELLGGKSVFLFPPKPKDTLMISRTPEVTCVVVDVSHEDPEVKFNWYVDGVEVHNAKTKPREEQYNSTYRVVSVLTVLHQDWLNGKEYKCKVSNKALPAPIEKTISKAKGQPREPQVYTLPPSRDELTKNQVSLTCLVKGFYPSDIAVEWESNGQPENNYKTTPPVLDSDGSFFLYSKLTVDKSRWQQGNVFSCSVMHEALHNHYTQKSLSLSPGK
light: DIVMTQSHKFMSTSVGDRVSITCKASQDVSTAVAWYQQKPGQSPKLLIYSASYRYTGVPDRFTGSGSGTDFTFTISSVQAEDLAVYYCQQHYSTPWTFGGGTKLEIKRTVAAPSVFIFPPSDEQLKSGTASVVCLLNNFYPREAKVQWKVDNALQSGNSQESVTEQDSKDSTYSLSSTLTLSKADYEKHKVYACEVTHQGLSSPVTKSFNRGEC
notes: Chimeric, mouse variable and human constant regions; supernatant sample; also called chimeric Y1258
B12: Y1262 (antibody, human IgG1, kappa)
heavy: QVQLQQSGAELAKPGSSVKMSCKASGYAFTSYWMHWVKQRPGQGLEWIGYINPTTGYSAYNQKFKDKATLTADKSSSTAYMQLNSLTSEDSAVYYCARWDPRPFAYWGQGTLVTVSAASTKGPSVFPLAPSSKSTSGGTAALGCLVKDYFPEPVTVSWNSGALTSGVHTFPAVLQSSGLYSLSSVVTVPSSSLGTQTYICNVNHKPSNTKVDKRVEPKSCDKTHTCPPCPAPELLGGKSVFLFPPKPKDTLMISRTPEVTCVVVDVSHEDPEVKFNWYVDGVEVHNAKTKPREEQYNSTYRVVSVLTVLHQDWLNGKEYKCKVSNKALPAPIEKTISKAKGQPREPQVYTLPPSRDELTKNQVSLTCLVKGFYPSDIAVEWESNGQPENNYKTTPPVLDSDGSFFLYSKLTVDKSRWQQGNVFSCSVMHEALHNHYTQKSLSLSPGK
light: DIVMTQSHKFMSTSVGDRVSITCKASQDVSTAVAWYQQKPGQSPKLLIYSASYRYTGVPDRFTGSGYGTDFTFTISSVQAEDLAVYYCQQHYSTPWTFGGGTKLEIKRTVAAPSVFIFPPSDEQLKSGTASVVCLLNNFYPREAKVQWKVDNALQSGNSQESVTEQDSKDSTYSLSSTLTLSKADYEKHKVYACEVTHQGLSSPVTKSFNRGEC
notes: Chimeric, mouse variable and human constant regions; supernatant sample; also called chimeric Y1262; Chim
B13: Y12XX-hz18 (antibody, human IgG1, kappa, V domains shown)
VH: QVQLVQSGAEVKKPGSSVKVSCKASGYAFTSYWMHWVRQAPGQGLEWMGYINPTTGYSAYNQKFKDKATLTADKSTSTAYMELSSLRSEDTAVYYCARWDPRPFAYWGQGTLVTVSS
VL: DIQMTQSPSFLSASVGDRVTITCKASQDVSTAVAWYQQKPGKAPKLLIYSASYRYTGVPSRFSGSGSGTDFTLTISSLQPEDFATYYCQQHYSTPWTFGGGTKVEIKR
notes: as for B6
B14: Y12XX-hz6 (antibody, human IgG1, kappa, V domains shown)
VH: QVQLVQSGAEVKKPGSSVKVSCKASGYAFTSYWMHWVRQRPGQGLEWIGYINPTTGYSAYNQKFKDKATLTADKSTSTAYMELNSLRSEDTAVYYCARWDPRPFAYWGQGTLVTVSS
VL: DIQMTQSPSSLSASVGDRVTITCKASQDVSTAVAWYQQKPGKAPKLLIYSASYRYTGVPSRFSGSGSGTDFTFTISSLQPEDIATYYCQQHYSTPWTFGGGTKVEIKR
notes: as for B6
B15: Y12XX-hz19 (antibody, human IgG1, kappa, V domains shown)
VH: QVQLVQSGAEVKKPGSSVKVSCKASGYAFTSYWMHWVRQRPGQGLEWMGYINPTTGYSAYNQKFKDKATLTADKSTSTAYMELSSLRSEDTAVYYCARWDPRPFAYWGQGTLVTVSS
VL: DIQMTQSPSFLSASVGDRVTITCKASQDVSTAVAWYQQKPGKAPKLLIYSASYRYTGVPSRFSGSGSGTDFTLTISSLQPEDFATYYCQQHYSTPWTFGGGTKVEIKR
notes: as for B6
B16: Y12XX-hz20 (antibody, human IgG1, kappa, V domains shown)
VH: QVQLVQSGAEVKKPGSSVKVSCKASGYAFTSYWMHWVRQRPGQGLEWIGYINPTTGYSAYNQKFKDKATLTADKSTSTAYMELNSLRSEDTAVYYCARWDPRPFAYWGQGTLVTVSS
VL: DIQMTQSPSFLSASVGDRVTITCKASQDVSTAVAWYQQKPGKAPKLLIYSASYRYTGVPSRFSGSGSGTDFTLTISSLQPEDFATYYCQQHYSTPWTFGGGTKVEIKR
notes: as for B6
B17: Y12XX-hz22 (antibody, human IgG1, kappa, V domains shown)
VH: QVQLVQSGAEVKKPGSSVKVSCKASGYAFTSYWMHWVRQAPGQGLEWMGYINPTTGYSAYNQKFKDKATLTADKSTSTAYMELSSLRSEDTAVYYCARWDARPFAYWGQGTLVTVSS
VL: DIQMTQSPSFLSASVGDRVTITCKASQDVSTAVAWYQQKPGKAPKLLIYSASYRYTGVPSRFSGSGSGTDFTLTISSLQPEDFATYYCQQHYSTPWTFGGGTKVEIKR
notes: as for B6
B18: ADX_Y1072.ZZ0-1 (antibody, V domains shown)
VH: QVQFQQSGAELARPGASVKLSCKASGYTFTSYWMQWVKQRPGQGLEWIGTIYPGDGDSRYNQKFKGKALLTADKSSSIAYMQLNSLASEDSAVYFCARFSLYDGYPYYFDYWGQGTTLTVSS
VL: DVVMTQTPLSLPVSLGDQASISCRSSQSLVHRNGNTYLHWYLQKPGQSPKLLIYRVSNRFSGVPDRFSGSGSGTDFTLKISRVEAEDLGIYFCSQSTHFPYTFGGGTKLEIK
notes: as for B1

How the values were obtained:
[1] = molecular target: T1, human-CD40-monomer protein (human, UniProt P25942 21-193, limits assumed); experiment: SPR, Ab captured on protein A, 1 uM hCD40 monomer, single concentration, apparent value
T1 construct: Soluble monomer generated in house, used as SPR analyte; also called hCD40; hCD40-monomer
Method: The CD40 kinetic and affinity data for human-CD40 monomer binding to mouse anti-human CD40 antibodies captured on a protein A sensor chip surface were assessed by SPR. The data shown are for a single concentration of CD40 analyte (1 μM) and are therefore reported as apparent (app) values.

[2] = molecular target: T1, human-CD40-monomer protein; experiment: SPR, Ab captured on protein A, hCD40 monomer 500 and 50 nM, 1:1 fit; supernatant
Method: Titer analysis was performed using Biolayer Interferometry (BLI) on an Octet RED instrument (Fortebio) by capturing antibodies from supernatant using protein A sensor tips and measuring capture response with respect to a standard curve obtained using a control antibody sample. SPR data were obtained by capturing antibodies on a protein A surface and testing the binding of 500 nM and 50 nM injections of human-CD40 analyte, using a BIAcore™ T200 instrument (GE Healthcare). The kinetic data for the two concentrations of hCD40-monomer were fit to a 1:1 Langmuir model, to yield estimates of the kinetic and affinity values for these interactions, and for comparison of the different molecules.

T1 sequence (P25942 21-193 limits assumed): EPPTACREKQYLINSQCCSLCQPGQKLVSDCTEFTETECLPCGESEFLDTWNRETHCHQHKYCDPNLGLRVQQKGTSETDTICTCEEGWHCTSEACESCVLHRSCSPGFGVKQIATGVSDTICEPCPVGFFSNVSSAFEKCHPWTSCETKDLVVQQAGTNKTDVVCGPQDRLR

Kd [1] [nM] | koff [1] [s⁻¹] | kon [1] [M⁻¹ s⁻¹] | Kd [2] [nM] | koff [2] [s⁻¹] | kon [2] [M⁻¹ s⁻¹] | Binder
7.9 | 0.00013 | 17000 |  |  |  | B1
17 | 0.00023 | 14000 |  |  |  | B2
1.1 | 0.00041 | 370000 |  |  |  | B3
4 | 0.00021 | 52000 |  |  |  | B4
6.6 | 0.0025 | 370000 |  |  |  | B5
 |  |  | 3.3 | 0.00084 | 260000 | B6
 |  |  | 7.6 | 0.0028 | 370000 | B7
 |  |  | 3.5 | 0.00084 | 240000 | B8
 |  |  | 3.6 | 0.00088 | 250000 | B9
 |  |  | 3.8 | 0.00094 | 250000 | B10
 |  |  | 0.067 | 3.8e-06 | 56000 | B11
 |  |  | 8 | 0.0028 | 350000 | B12
 |  |  | 7.1 | 0.0024 | 350000 | B13
 |  |  | 6.4 | 0.0024 | 380000 | B14
 |  |  | 6.2 | 0.0023 | 380000 | B15
 |  |  | 8.2 | 0.0025 | 310000 | B16
 |  |  | 210 | 0.079 | 370000 | B17
120 | 0.0092 | 77000 |  |  |  | B18
